Measured values: US20150266922A1 (GEORG AUGUST UNIVERSITAT GOTTINGEN STIFTUNG OFFENTLICHEN …, published 2015)
Each block holds one binder with its values, some of them ahead of it.

Tests used:
[1] = target: T1, Dipeptidyl peptidase 9 (DPP9), recombinant wild-type (human, UniProt Q86TI2 1-863); assay: cell-based or functional assay
SUMO1 = target: T2, SUMO1 (UniProt P63165 1-97, limits assumed); assay: competition ELISA: SUMO1 pre-incubated with the peptide, then added to immobilized DPP9
T2 construct: Immobilized on CnBr Sepharose beads or ELISA wells, or free in solution; also called S1
Procedure: ELISA: A 96 well plate (Immuno 96 MicroWell™ Solid Plates, Nunc) was coated with 600 ng purified recombinant proteins per well in 100 μl TB, overnight at 4° C. Next, wells were blocked with ELISA buffer (TB supplemented with 3% BSA) for 1 h at room temperature. After blocking, recombinant interacting proteins were added to the wells. Following 2 hours of incubation at 25° C., wells were washed four times. […] After incubation with secondary antibodies, wells were washed with ELISA buffer and ddH20. Reactions were developed with TMB-substrate reagent set from BD (OptEIA substrate). Absorbance was measured at 420 nm on an Appliskan microplate fluorimeter (Thermo Scientific) and the Skanit software. Experiments were performed at least three times, in triplicates.

[2] = target: T1, Dipeptidyl peptidase 9 (DPP9), …; assay: cell-based or functional assay; remark: listed apart in the source

T1 sequence (Q86TI2 other isoform, or with tags, fused parts or gaps limits assumed, form in doubt): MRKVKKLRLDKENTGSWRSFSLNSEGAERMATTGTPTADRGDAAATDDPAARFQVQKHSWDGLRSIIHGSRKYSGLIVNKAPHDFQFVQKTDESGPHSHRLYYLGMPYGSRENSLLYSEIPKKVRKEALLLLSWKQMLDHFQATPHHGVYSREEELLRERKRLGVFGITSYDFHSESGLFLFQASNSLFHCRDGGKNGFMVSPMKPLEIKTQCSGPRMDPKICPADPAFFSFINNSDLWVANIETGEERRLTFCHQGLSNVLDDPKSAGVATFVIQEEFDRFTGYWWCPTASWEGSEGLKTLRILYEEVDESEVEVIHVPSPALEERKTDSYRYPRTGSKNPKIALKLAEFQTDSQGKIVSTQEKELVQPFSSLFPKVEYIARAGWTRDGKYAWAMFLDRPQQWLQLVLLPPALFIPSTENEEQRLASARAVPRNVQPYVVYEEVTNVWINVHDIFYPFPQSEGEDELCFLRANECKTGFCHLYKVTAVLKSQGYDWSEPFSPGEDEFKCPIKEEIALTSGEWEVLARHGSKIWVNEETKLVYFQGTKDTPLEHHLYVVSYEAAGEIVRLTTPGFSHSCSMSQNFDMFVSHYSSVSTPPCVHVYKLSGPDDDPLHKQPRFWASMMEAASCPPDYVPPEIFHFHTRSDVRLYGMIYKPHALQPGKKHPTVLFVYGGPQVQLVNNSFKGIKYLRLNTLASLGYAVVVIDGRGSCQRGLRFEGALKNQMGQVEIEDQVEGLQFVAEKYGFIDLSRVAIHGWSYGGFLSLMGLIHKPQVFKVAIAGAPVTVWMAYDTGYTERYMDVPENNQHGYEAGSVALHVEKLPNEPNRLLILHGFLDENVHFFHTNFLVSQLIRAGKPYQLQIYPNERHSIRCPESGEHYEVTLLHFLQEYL
T2 sequence (P63165 1-97 limits assumed): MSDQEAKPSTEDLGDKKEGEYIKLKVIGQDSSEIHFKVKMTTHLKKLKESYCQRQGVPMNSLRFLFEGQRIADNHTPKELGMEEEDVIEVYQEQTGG

Binder: SLRFLFEGQRIADNR [SLRFLFEGQRIADNR (SEQ ID NO: 16)]
% DPP9 activity (Mean), 14 µM peptide [1]: 56.4%

Binder: FLIEGQRI [FLIEGQRI (SEQ ID NO: 36)]
% DPP9 activity (Mean), 14 µM peptide [1]: 49%

Binder: RFLFEGQRIADNH [… (SEQ ID NO: 23)]
% DPP9 activity (Mean), 14 µM peptide [1]: 79.8%

Binder: SLRFLWEGQRIADNH [SLRFLWEGQRIADNH (SEQ ID NO: 18)]
% DPP9 activity (Mean), 14 µM peptide [1]: 26.9%

Binder: SLRFLFDGQRIADNH [SLRFLFDGQRIADNH (SEQ ID NO: 17)]
% DPP9 activity (Mean), 14 µM peptide [1]: 74.9%

Binder: AAASLRFLYEG [AAASLRFLYEG (SEQ ID NO: 44)]
% DPP9 activity (Mean), 10 µM peptide [2]: 91.2%

Binder: RRRRSLRFLYAG [RRRRSLRFLYAG (SEQ ID NO: 47)]
% DPP9 activity (Mean), 10 µM peptide [2]: 91.5%

Binder: SLRFLYEGAAA [SLRFLYEGAAA (SEQ ID NO: 45)]
% DPP9 activity (Mean), 10 µM peptide [2]: 23.9%

Binder: FLFEGQRIA [… (SEQ ID NO: 32)]
% DPP9 activity (Mean), 14 µM peptide [1]: 38.4%

Binder: TLRFLFEG [TLRFLFEG (SEQ ID NO: 41)]
% DPP9 activity (Mean), 10 µM peptide [2]: 29.2%

Now from value to binder:

% DPP9 activity (Mean), 14 µM peptide [1]: 18.4%
Binder: SLRFLFEGQR [… (SEQ ID NO: 28)]

% DPP9 activity (Mean), 14 µM peptide [1]: 28.6%
Binder: SLRFLVEGQRIADNH [SLRFLVEGQRIADNH (SEQ ID NO: 19)]

% DPP9 activity (Mean), 14 µM peptide [1]: 72.9%
Binder: SLRFLAEGQRIADNH [SLRFLAEGQRIADNH (SEQ ID NO: 21)]

binding result (SUMO1): binds
B1: DPP9-arm peptide (285-VEVIHVPSPALEERKTDSYR-304) (peptide)
peptide: VEVIHVPSPALEERKTDSYR
notes: also called peptide corresponding to the extended arm of DPP9

% DPP9 activity (Mean), 14 µM peptide [1]: 66.4%
Binder: RFLFEGQRIAD [… (SEQ ID NO: 31)]

% DPP9 activity (Mean), 14 µM peptide [1]: 42.7%
Binder: LFEGQRIADNH [… (SEQ ID NO: 24)]

% DPP9 activity (Mean), 10 µM peptide [2]: 15.3%
Binder: SLRFLFAG [SLRFLFAG (SEQ ID NO: 39)]

% DPP9 activity (Mean), 14 µM peptide [1]: 29.1%
Binder: SLRFLFEGQRI [… (SEQ ID NO: 27)]

% DPP9 activity (Mean), 10 µM peptide [2]: 92.2%
Binder: RRRRSLRFLFEG [RRRRSLRFLFEG (SEQ ID NO: 46)]

% DPP9 activity (Mean), 10 µM peptide [2]: 16.3%
Binder: SLRFLYAG [SLRFLYAG (SEQ ID NO: 40)]

% DPP9 activity (Mean), 14 µM peptide [1]: 55.9%
Binder: FLFEGQRI [… (SEQ ID NO: 33)]

% DPP9 activity (Mean), 14 µM peptide [1]: 19.5%
Binder: SLRFLFEAQRIADNH [SLRFLFEAQRIADNH (SEQ ID NO: 22)]
